Laboratory results from PMC5608694, “The crystal structure of the regulatory domain of the human sodium-driven chloride/bicarbonate exchanger” (Scientific Reports, 2017).

Molecular target: the molecule itself
Assay: SEC; 1 mg of ntcNDCBE on Superdex 200 10/300 GL; eluted at 14.2 mL, compared with molecular weight standards

B1: truncated (ΔVR1) N-terminal cytoplasmic domain of human sodium-driven chloride/bicarbonate exchanger NDCBE-D (domain or fragment, UniProt Q2Y0W8-4 40-344, looked up)
chain: DTPSQRVQFILGTEEDEEHVPHELFTELDEICMKEGEDAEWKETARWLKFEEDVEDGGERWSKPYVATLSLHSLFELRSCLINGTVLLDMHANSIEEISDLILDQQELSSDLNDSMRVKVREALLKKHHHQNEKKRNNLIPIVRSFAEVGKKQSDPHLMDKHGQTVSPQSVPTTNLEVKNGVNCEHSPVDLSKVDLHFMKKIPTGAEASNVLVGEVDILDRPIVAFVRLSPAVLLSGLTEVPIPTRFLFILLGPVGKGQQYHEIGRSMATIMTDEIFHDVAYKAKERDDLLAGIDEFLDQVTVLP
notes: human NDCBE (SLC4A8) isoform D, N-terminal cytoplasmic core domain, amino acids 40-344 (made by mutagenesis from the 40-425 construct); numbers count on: isoform D (Q2Y0W8-4); Forms a homodimer in the crystal and in solution; Codon-optimised gene in pET-M11; His tag removed with TEV protease; also called ntcNDCBE; regulatory N-terminal domain of human NDCBE; source: E. coli BL21 Gold, purified …
- stoichiometry N: 2
